Numbering of substitutions follows the chain as printed.

Data set [1] concerns the target T1, TBPcore (UniProt P13393 61-240).
T1 sequence: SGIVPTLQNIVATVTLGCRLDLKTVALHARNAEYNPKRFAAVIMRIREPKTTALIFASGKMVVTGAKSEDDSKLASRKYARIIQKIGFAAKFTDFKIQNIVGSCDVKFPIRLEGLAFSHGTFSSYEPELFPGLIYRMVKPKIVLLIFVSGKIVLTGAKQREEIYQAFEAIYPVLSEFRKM
As to the kind of experiment: EMSA; not impaired; EMSA: 3 nM DNA, 300 nM TBPcore, 3 uM TFIIB, 4 mM Tris-HCl pH 8.0, 60 mM KCl, 5 mM MgCl2, 4% glycerol, 1 mM DTT, 100 ug/ml BSA, 0.1% Tween 20, 50 ug/ml heparin. To be noted: protein: recombinant; label: 5'-Cy5 on coding strand; blunt. On the technique in general: In EMSA bound probe runs differently from free probe, usually more slowly.

The target of data set [2] is T2, TBPcore;TFIIB (Saccharomyces cerevisiae?;Saccharomyces …, UniProt P13393;P29055 61-240;1-345, |).
T2 sequence 1: T1 sequence
T2 sequence 2: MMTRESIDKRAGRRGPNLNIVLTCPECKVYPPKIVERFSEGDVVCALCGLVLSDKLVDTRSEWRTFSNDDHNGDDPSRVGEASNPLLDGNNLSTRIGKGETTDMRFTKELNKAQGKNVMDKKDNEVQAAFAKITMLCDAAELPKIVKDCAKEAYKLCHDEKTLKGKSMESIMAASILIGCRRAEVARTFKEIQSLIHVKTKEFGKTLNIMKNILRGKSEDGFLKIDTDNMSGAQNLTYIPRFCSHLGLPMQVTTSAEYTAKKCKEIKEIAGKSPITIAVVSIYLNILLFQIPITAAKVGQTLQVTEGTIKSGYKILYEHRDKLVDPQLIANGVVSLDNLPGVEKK
The data set is described as above. To be noted: protein: recombinant;recombinant; tags: ;; copies: 1;1; label: 5'-Cy5 on coding strand; blunt.

Data set [3] concerns the target T1, TBPcore. As to the kind of experiment: EMSA; 300 nM TBPcore, 50 ug/ml heparin; EMSA: 3 nM DNA, 300 nM TBPcore, 3 uM TFIIB, 4 mM Tris-HCl pH 8.0, 60 mM KCl, 5 mM MgCl2, 4% glycerol, 1 mM DTT, 100 ug/ml BSA, 0.1% Tween 20, 50 ug/ml heparin. As to conditions: protein: recombinant; label: 5'-Cy5 on coding strand; blunt.
Data set [4] has as its target T2, TBPcore;TFIIB. As to the kind of experiment: EMSA; 300 nM TBPcore, 3 uM TFIIB, 50 ug/ml heparin; EMSA: 3 nM DNA, 300 nM TBPcore, 3 uM TFIIB, 4 mM Tris-HCl pH 8.0, 60 mM KCl, 5 mM MgCl2, 4% glycerol, 1 mM DTT, 100 ug/ml BSA, 0.1% Tween 20, 50 ug/ml heparin. To be noted: protein: recombinant;recombinant; tags: ;; copies: 1;1; label: 5'-Cy5 on coding strand; blunt.
Data set [5] deals with T1, TBPcore. Nature of the data set: EMSA; not affected vs TMT1 (GAE); EMSA: 3 nM DNA, 300 nM TBPcore, 3 uM TFIIB, 4 mM Tris-HCl pH 8.0, 60 mM KCl, 5 mM MgCl2, 4% glycerol, 1 mM DTT, 100 ug/ml BSA, 0.1% Tween 20, 50 ug/ml heparin. To be noted: protein: recombinant; label: 5'-Cy5 on coding strand; blunt.
In data set [6] the target is T2, TBPcore;TFIIB. Described as above. To be noted: protein: recombinant;recombinant; tags: ;; copies: 1;1; label: 5'-Cy5 on coding strand; blunt.
For data set [7], the target named is T1, TBPcore. As to the kind of experiment: EMSA; GAE region not sufficient for binding; EMSA: 3 nM DNA, 300 nM TBPcore, 3 uM TFIIB, 4 mM Tris-HCl pH 8.0, 60 mM KCl, 5 mM MgCl2, 4% glycerol, 1 mM DTT, 100 ug/ml BSA, 0.1% Tween 20, 50 ug/ml heparin. As to conditions: protein: recombinant; label: 5'-Cy5 on coding strand; blunt.
Data set [8] concerns the target T2, TBPcore;TFIIB. The data set is described as above. To be noted: protein: recombinant;recombinant; tags: ;; copies: 1;1; label: 5'-Cy5 on coding strand; blunt.

B1: TMT1 (TATA) (dsDNA)
DNA 1: ATTTTCATTTTTTATATAATATGTAACTAATTTAGT
DNA 2: ACTAAATTAGTTACATATTATATAAAAAATGAAAAT
Regarding B1, the binding result in data set [1] and in data set [2] was “binds” each time.

B2: TMT1 (GAE) (dsDNA)
DNA 1: ATTTTCATTTTTAAAGGAAAAGGAATGTAACTAATTTAGT
DNA 2: ACTAAATTAGTTACATTCCTTTTCCTTTAAAAATGAAAAT
B2: the binding result in data set [3] and in data set [4] was “binds” each time.

B3: TMT1 (A-12) (dsDNA)
DNA 1: B2 DNA 1 with G16A, G17A, G22A, G23A
DNA 2: B2 DNA 2 with C18T, C19T, C24T, C25T
On to B3, for which the binding result in data set [5] and in data set [6] was “binds” in each case.

B4: HIS4 (GAE) (dsDNA)
DNA 1: TAGTATACTGTGAAAGGAAAAGGAAGATATGGAACGTTAT
DNA 2: ATAACGTTCCATATCTTCCTTTTCCTTTCACAGTATACTA
Turning to B4, the binding result in data set [7] and in data set [8] was “no binding” each time.

B5: HIS4 (TATA) (dsDNA)
DNA 1: ACAGTAGTATACTGTGTATATAATAGATATGGAACGTTAT
DNA 2: ATAACGTTCCATATCTATTATATACACAGTATACTACTGT
On to B5, for which the binding result in data set [3] and in data set [4] was “binds” each time.

Source of the values: PMC3217976, “A Conserved GA Element in TATA-Less RNA Polymerase II Promoters”.
